These results are taken from PMC3093366, “A Component of the Xanthomonadaceae Type IV Secretion System Combines a VirB7 Motif with a N0 Domain Found in Outer Membrane Transport Proteins” (PLoS Pathogens, 2011).

The target in test [1] is VirB7_(XAC2622_24–139) (Xanthomonas citri subsp. citri strain 306). Put plainly: NMR 15N relaxation (rotational correlation time); 15N T1 and T2 of 15N-VirB7_(XAC2622_24–139) at 800 µM, 40°C, 600 MHz.
Test [2] deals with T1, VirB7_(XAC2622_51–134) (Xanthomonas citri subsp. citri strain …, UniProt A0AAI7ZGD2 51-134, 15N isotope labelled in the NMR titration).
T1 construct: also called VirB7_(XAC2622) globular domain; N0 domain; source: E. coli BL21(DE3)RP or BL21(DE3)Star, purified (Q-sepharose, Superdex 75)
T1 sequence: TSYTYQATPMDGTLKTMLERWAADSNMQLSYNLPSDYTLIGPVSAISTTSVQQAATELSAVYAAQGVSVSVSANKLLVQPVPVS
Put plainly: NMR titration; 15N-labeled VirB7_(XAC2622_51–134) (200 µM) titrated with unlabeled VirB7_(XAC2622_38–52) peptide (0 to 740 µM); 15N-HSQC. Particulars: both partners purified.

Test [3] concerns the target T2, VirB9_(XAC2620_34–255) (Xanthomonas citri subsp. citri strain …, UniProt A0AAI8ESY0 34-255).
T2 construct: also called full length VirB9; full-length VirB9_(XAC2620) minus the first 33 residues
T2 sequence: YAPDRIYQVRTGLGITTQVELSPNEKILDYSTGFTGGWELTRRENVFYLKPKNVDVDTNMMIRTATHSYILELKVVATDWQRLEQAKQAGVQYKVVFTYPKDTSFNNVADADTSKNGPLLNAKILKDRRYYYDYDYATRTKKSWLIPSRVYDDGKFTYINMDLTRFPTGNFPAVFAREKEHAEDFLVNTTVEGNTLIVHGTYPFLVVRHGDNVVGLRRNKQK
Put plainly: other fluorescence titration; intrinsic fluorescence; 0.1 µM aliquots of VirB7_(XAC2622_24–139_His) added to 1 µM VirB9_(XAC2620_34–255) up to 2.2 µM; 5 mM sodium acetate pH 5.0, 25°C, excitation 280 nm, emission 334–342 nm. The following applies: both partners purified.

On to “VirB7_(XAC2622_24–139) (from UniProt A0AAI7ZGD2 24-139) (domain or fragment)”, for which the stoichiometry N in test [1] amounted to 2.

B1: VirB7_(XAC2622_38–52) (peptide)
peptide: NHFDEAPTEIPLYTS
notes: also called unlabeled peptide encompassing residues 38–52 from the N-terminal region; source: synthetic peptide, bought: EZBiolab
Consider B1, for which the binding result in test [2] is listed as “binds”.

B2: VirB7_(XAC2622_24–139_His) (domain or fragment)
chain: TKPAPDFGGRWKHVNHFDEAPTEIPLYTSYTYQATPMDGTLKTMLERWAADSNMQLSYNLPSDYTLIGPVSAISTTSVQQAATELSAVYAAQGVSVSVSANKLLVQPVPVSSGAKL
notes: Form with the pET28a N-terminal His-tag not removed; used in the fluorescence titration; not shown: His-tag, N-terminal, kept
In the case of B2, in test [3], the Kd was ~40 nM and the “stoichiometry N” value is 1 VirB7:VirB9.

The term stoichiometry N denotes a count of units in the complex or per binding partner. As usually defined, the Kd is a measure of binding affinity in units of concentration. A low value points to a tighter complex.
